In patent US20200148732A1 (UNIVERSITY OF COPENHAGEN, published 2020):

Columns and labels:
GFP-TONSL W563A = target: T1, GFP-TONSL W563A (Homo sapiens, UniProt Q96HA7 1-1378); assay: GFP immunoprecipitation of GFP-TONSL from transfected HeLa S3 cells, western blot (co-IP; association may be indirect)
T1 construct: also called TONSL W563A / GFP; not shown: N-terminal GFP tag
T1 sequence: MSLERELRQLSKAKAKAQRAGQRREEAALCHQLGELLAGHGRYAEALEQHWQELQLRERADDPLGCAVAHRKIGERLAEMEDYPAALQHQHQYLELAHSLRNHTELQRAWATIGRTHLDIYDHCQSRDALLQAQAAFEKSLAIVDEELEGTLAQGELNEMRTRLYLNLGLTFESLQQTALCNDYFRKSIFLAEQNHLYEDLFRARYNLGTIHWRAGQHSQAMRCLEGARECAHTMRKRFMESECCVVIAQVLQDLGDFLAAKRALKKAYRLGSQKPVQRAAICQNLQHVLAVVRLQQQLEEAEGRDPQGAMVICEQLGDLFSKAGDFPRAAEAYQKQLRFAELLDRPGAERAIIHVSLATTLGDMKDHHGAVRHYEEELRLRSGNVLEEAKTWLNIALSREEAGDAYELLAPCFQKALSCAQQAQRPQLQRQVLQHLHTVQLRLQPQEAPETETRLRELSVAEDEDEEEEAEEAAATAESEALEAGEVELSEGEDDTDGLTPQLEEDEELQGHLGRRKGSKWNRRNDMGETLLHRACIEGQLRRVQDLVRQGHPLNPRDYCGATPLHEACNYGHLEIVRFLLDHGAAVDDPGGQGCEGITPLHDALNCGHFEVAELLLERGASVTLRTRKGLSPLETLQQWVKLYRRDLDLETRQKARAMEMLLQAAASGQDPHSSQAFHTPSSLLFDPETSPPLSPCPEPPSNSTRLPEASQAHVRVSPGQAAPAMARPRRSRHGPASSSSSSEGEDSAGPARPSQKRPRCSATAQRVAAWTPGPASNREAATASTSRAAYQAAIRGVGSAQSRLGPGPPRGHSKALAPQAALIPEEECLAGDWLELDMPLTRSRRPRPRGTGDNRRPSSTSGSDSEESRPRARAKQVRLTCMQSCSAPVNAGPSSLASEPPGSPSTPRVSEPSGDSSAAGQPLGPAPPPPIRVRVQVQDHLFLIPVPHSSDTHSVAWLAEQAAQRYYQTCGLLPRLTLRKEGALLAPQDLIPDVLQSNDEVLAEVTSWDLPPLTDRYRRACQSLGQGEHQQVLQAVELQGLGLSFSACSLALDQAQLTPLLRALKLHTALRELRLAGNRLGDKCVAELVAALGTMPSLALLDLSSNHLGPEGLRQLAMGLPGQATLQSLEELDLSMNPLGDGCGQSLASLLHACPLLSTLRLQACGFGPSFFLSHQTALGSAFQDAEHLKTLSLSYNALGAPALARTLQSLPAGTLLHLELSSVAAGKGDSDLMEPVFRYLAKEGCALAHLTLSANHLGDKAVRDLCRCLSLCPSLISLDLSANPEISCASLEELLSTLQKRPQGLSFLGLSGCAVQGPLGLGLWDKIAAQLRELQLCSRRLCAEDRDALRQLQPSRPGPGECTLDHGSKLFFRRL

GFP-TONSL N571A = target: T2, GFP-TONSL N571A (Homo sapiens, UniProt Q96HA7 1-1378); assay: as above
T2 construct: also called TONSL N571A / GFP; not shown: N-terminal GFP tag
T2 sequence: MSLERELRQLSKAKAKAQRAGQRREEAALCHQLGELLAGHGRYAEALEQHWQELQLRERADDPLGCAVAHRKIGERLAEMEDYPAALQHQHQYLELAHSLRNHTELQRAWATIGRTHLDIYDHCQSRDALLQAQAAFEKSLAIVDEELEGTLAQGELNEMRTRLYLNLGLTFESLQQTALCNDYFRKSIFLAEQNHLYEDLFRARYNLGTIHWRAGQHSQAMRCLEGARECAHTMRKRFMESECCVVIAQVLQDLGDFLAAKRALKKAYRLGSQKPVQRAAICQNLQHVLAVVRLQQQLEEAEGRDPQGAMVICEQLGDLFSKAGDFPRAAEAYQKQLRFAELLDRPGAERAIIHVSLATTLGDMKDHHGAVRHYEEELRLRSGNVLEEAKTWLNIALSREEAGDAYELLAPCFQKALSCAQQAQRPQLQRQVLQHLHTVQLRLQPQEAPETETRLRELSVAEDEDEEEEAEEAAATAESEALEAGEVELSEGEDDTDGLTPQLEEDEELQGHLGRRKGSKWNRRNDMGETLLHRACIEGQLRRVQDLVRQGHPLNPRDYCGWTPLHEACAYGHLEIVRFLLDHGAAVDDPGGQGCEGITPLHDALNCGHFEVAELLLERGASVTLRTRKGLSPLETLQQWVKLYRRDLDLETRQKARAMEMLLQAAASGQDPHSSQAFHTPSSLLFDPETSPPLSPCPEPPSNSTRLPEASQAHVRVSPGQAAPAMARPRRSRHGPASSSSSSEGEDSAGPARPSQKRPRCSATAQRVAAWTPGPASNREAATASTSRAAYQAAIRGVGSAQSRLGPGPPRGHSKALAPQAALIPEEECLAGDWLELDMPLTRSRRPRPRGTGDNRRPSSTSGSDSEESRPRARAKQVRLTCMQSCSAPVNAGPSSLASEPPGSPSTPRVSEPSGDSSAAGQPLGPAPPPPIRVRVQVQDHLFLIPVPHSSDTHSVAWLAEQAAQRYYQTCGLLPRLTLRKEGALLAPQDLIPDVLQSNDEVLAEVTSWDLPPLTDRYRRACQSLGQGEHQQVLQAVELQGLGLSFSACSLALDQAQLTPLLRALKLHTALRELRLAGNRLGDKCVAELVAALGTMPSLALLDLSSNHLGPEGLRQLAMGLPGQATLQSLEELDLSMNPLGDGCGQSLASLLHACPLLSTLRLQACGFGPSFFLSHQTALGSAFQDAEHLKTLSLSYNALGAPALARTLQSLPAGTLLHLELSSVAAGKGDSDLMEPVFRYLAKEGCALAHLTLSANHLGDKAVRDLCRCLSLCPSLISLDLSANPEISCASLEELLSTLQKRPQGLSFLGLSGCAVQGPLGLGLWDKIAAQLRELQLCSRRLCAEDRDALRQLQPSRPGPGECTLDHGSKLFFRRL

B1: MMS22L (endogenous, in cell extracts) (other, UniProt Q6ZRQ5 1-1243, looked up)
chain: MENCSAASTFLTDSLELELGTEWCKPPYFSCAVDNRGGGKHFSGESYLCSGALKRLILNLDPLPTNFEEDTLEIFGIQWVTETALVNSSRELFHLFRQQLYNLETLLQSSCDFGKVSTLHCKADNIRQQCVLFLHYVKVFIFRYLKVQNAESHVPVHPYEALEAQLPSVLIDELHGLLLYIGHLSELPSVNIGAFVNQNQIKLFPPSWHLLHLHLDIHWLVLEILYMLGEKLKQVVYGHQFMNLASDNLTNISLFEEHCETLLCDLISLSLNRYDKVRSSESLMSDQCPCLCIKELWVLLIHLLDHRSKWFVSESFWNWLNKLLKTLLEKSSDRRRSSMPVIQSRDPLGFSWWIITHVASFYKFDRHGVPDEMRKVESNWNFVEELLKKSISVQGVILEEQLRMYLHCCLTLCDFWEPNIAIVTILWEYYSKNLNSSFSISWLPFKGLANTMKSPLSMLEMVKTCCCDKQDQELYKSSSSYTIFLCILAKVVKKAMKSNGPHPWKQVKGRIYSKFHQKRMEELTEVGLQNFFSLFLLLAAVAEVEDVASHVLDLLNFLKPAFVTSQRALIWKGHMAFLLMYAQKNLDIGVLAEKFSCAFREKAKEFLVSKNEEMVQRQTIWTLLSIYIDGVQEVFETSYCLYPSHEKLLNDGFSMLLRACRESELRTVLSFLQAVLARIRSMHQQLCQELQRDNVDLFVQSSLSAKERHLAAVASALWRHFFSFLKSQRMSQVVPFSQLADAAADFTLLAMDMPSTAPSDFQPQPVISIIQLFGWDDIICPQVVARYLSHVLQNSTLCEALSHSGYVSFQALTVRSWIRCVLQMYIKNLSGPDDLLIDKNLEEAVEKEYMKQLVKLTRLLFNLSEVKSIFSKAQVEYLSISEDPKKALVRFFEAVGVTYGNVQTLSDKSAMVTKSLEYLGEVLKYIKPYLGKKVFSAGLQLTYGMMGILVKSWAQIFATSKAQKLLFRIIDCLLLPHAVLQQEKELPAPMLSAIQKSLPLYLQGMCIVCCQSQNPNAYLNQLLGNVIEQYIGRFLPASPYVSDLGQHPVLLALRNTATIPPISSLKKCIVQVIRKSYLEYKGSSPPPRLASILAFILQLFKETNTDIYEVELLLPGILKCLVLVSEPQVKRLATENLQYMVKACQVGSEEEPSSQLTSVFRQFIQDYGMRYYYQVYSILETVATLDQQVVIHLISTLTQSLKDSEQKWGLGRNIAQREAYSKLLSHLGQMGQDEMQRLENDNT
GFP-TONSL W563A
  binding result: binds
GFP-TONSL N571A
  binding result: binds
